A short description of the data set: soluble on expression in E. coli; label from the status in PepcDB or PDB records.
Take “MKIAIIGAGNMGGSIARGLAKGSLIADSDIIVSNPSAGKLEKLKEEFPGISTTLSNTEAATGADVVILAVKPWFVESVMRELKLKSKQTLVSVAAGISFEELAHFVIAPEMPMFRLIPNTAISELESMTLIAARNTNDEQNLFMLRLFNEMGMAMLIPEDKIAATTALTSCGIAYVLKYIQAAMQAGIEMGIRPKDAMEMVAQSVKGAAALILNNDTHPSVEIDKVTTPGGITIKGINELEHNGFTSAVIKAMKASK”: the “soluble on expression in E. coli” value is on record as “soluble”.

Consider “MAEIIFNLSADDEGIGKHNYLCSLISQQSARCISGYVFSSSGFGESTTDVVFAGNGLIYENGYLLARSERFCMEEQLIINEIDVECIRAERRVNTTFAANKANCPGKEAVRISTEFVNSKDLNLTRTFNPHPFVPQGNELNSRLEHHHHHH”, for which the “soluble on expression in E. coli” value is reported as “not soluble”.

In the case of “GHMGQSPDAPIADTPGEQQEINLYSSRHYNTDNELYAKFTAETGIKVNLIEGKADELLERIKSEGANSPADVLLTVDLARLWRAEEDGIFQPVQSEILETNVPEYLRSPDGMWFGFTKRARVIMYNKGKVKPEELSTYEELADPKWKGRVIIRSSSNEYNQSLVASLVVADGEESTLAWAKGFVSNFAREPQGNDTAQIEAVSSGEADLTLANTYYMGRLLESEDPAQKAIAENVGVFFPNQEGRGTHVNVSGVGVVKTAPNREGAVKFIEFLVSEPAQAFLAQNNYEYPVLAGVPLNKSVASFGEFKSDTTSLDKLGPALAPATKIMNEAGWK”, the “soluble on expression in E. coli” value is recorded as “soluble”.

As for “MHIYRYEENPLITPEDVPPHHDGFEVIGAFNAGVARFQGEVLLLLRVAERPVSDDPNIVKAPVWNPKTGKVDVYEFRKDDPRYDFSDPRVIREAGAERFAYLTSLSYLRLARSQDGRRFVIDDRPFVYPSNELETFGIEDPRITYIDGTYYIYFSAVSPKGVGEAMVSTTDFRTVTHHGMIFAPENKDVLIFPEKINGKYYALHRPVPRSNGRPEVWIAESENLLHWGNHRFLFGLREGKWDSARIGGGAVPIKTEYGWLELYHGASDDHRYCMGAVLLDLNDPAKVIARSERPLVEPEADYEVNGFFGRVVFSCGALVDGDIVKMYYGAADTSMACVELKLDEILDSLVKV”, the “soluble on expression in E. coli” value is “soluble”.

With “MSLIKLLALDMDGTLLNEAKEIPQAHITAIHKAIEKGVKLVLCTGRPLFGVLPYYKKLELDLQNEYIIVNNGCSTHQTSDWGLVDWQELSPADIEYLYDLAEKSDVQLTLFDESHYFVLGGKPNQVIENDAKLVFSDLTEISLEEATSGKFRMFQGMFLGTKEQTDDFEQRFAEELCQRFSGVRSQPVIYEAMPLGTTKATALSRLAEILKIDSSEIMAMGDANNDIEMLQFAGLGIAMGNASDYVKSLADAVTSSNEEDGVARAIEKYILEGHHHHHH”, the “soluble on expression in E. coli” value is recorded as “soluble”.

For “SQRRGQLSRRLVNSADRDPSDENSLSRAPAPACTSRGTHVVETTSLKRHSKVLRSQDASGTAESVNSQTPDDEVDHTLWTLVREVSDAEAAFWALRNDSRLLGFVLRSQLLALVHDDSSVTDFLEAAQQPTDVGDVQAEFILCWVPVPGGPAILWRADYQRLIEEQVARRLSELEDPARKAALWGTTREQVERDTHIRAADGSCWLRTLPCPPSVIRALTQGQKALVQQVKRMGRYGRLPLHRAELLRLSRTCFSARFHILDAVGCGTLALDAQNTLSKEPYLCLPEVRTTNIVDSGEIGF”, the “soluble on expression in E. coli” value is “soluble”.

As to “MFARLANPAHFKPLTGSHITRAAKRLYHPKVIDHYTNPRNVGSMDKSLANVGTGIVGAPACGDVIKLQIQVNDKSGIIENVKFKTFGCGSAIASSSYMTELVRGMSLDEAVKIKNTEIAKELSLPPVKLHCSMLAEDAIKAAIKDYKTKRNPSVLH”, the “soluble on expression in E. coli” value is given as “not soluble”.

With “GAMALVDGFLELERSSGKLEWSAILQKMASDLGFSKILFGLLPKDSQDYENAFIVGNYPAAWREHYDRAGYARVDPTVSHCTQSVLPIFWEPSIYQTRKQHEFFEEASAAGLVYGLTMPLHGARGELGALSLSVEAENRAEANRFMESVLPTLWMLKDYALQSGAGLAFEHPVSK”, the “soluble on expression in E. coli” value is listed as “soluble”.

For “AFVKMVGHHVAFLEADVLQAERDHGAFPQALRRWLGSAGLPSFRNVSGVQWHNPSSLQPPPPGFK”, the “soluble on expression in E. coli” value is listed as “not soluble”.

Consider “MGDGVLELVVRGMTCASCVHKIESSLTKHRGILYCSVALATNKAHIKYDPEIIGPRDIIHTIESLGFEASLVKIE”, for which the “soluble on expression in E. coli” value is given as “soluble”.

On to “MGSDKIHHHHHHMIKALLTVSTILVSSHALATDKPADKPWHNEKPTLSTINAPTKVMPMVCKQTQALAYLKELQSGKKDIYSVKSNDHGGKGANDSGWLTWRVDDPTNLIPCPKGGAADTEVGMCWKELNDEPTVIGLVRVAPGTAAPHYHREMECYYGLSGQGLTWAQERMQPFGAGDYIEIPSKAIHYTPNTYDDQDLIYMYWFPLDGKFSTFKYQWPKDVGPGEQLMFDFVPYTNSKTVRSGNDGYGWDVIQKSKK”, for which the “soluble on expression in E. coli” value is listed as “not soluble”.

Take “MSLAVTLADVARRAGVSLATASRVLNGSARAVSDEMRARVTAAARELHYVPNAHAQALARAATQTVGVIVHDVSDPYFAEILRGIQRSAADAGRLMIVCNTFRDPQRELEYVHLLQKQRVEAIILAGSGLDDRAYCRSMTERLDSFASMGGRVAVIGRHNIAADAVVPDNVGGARALAHYLLDLGHRSFGIIDGPALLTTSRDRRSGFVQALQAGGITLPPDAIIPGDFTRDGGAQAAIRLLERFPSITAIFALNDVMAIGALAALRERGITVPDQMSIVGFDDIPIAADVTPALTTMRVPMSQLGSEALALALSAEDTLRTIHLPTEMIVRQSTAEGHHHHHH”: the “soluble on expression in E. coli” value is listed as “soluble”.

In the case of “KYKLVFLGEQAVGKTSIITRFMYDTFDNNYQSTIGIDFLSKTLYLDEGPVRLQLWDTAGQERFRSLIPSYIRDSAAAIVVYDITNRQSFENTTKWIQDILNERGKDVIIALVGNKTDLGDLRKVTYEEGMQKAQEYNTMFHETSAKAGHNIKVLFKKTASKL”, the “soluble on expression in E. coli” value is “soluble”.

As to “MLKIQAYFNETADLPCQFANSQNQSLSELVVFWQDQENLVLNEVYLGKEKFDSVHSKYMGRTSFDSDSWTLRLHNLQIKDKGLYQCIIHHKKPTGMIRIHQMNSELSVLA”, the “soluble on expression in E. coli” value is “soluble”.

On to “MNLDAPRVLVLNAAYEVLGLASIKRAVLLVLGGGAEMVSESGLYLNTPSTRIPVPSVVRLKRMVRRRPGRVPLNRRNVLRRDRYTCQYCGQKGGELTVDHVLPKSRGGKSTWDNLVAACRSCNLRKGDRTPEEAGMRLLRPPKPPRVPLFLLDLKEVPPDWRPFVEGLLGLEHHHHHH”, for which the “soluble on expression in E. coli” value is reported as “not soluble”.

In the case of “MGSDKIHHHHHHDLEEYRTTPKMVINSAFSPDTVVMASISRTWFHSESKPDVTIRNAKVELYIDGIFKEEMPWKEYSYWKSSRWLGEDRGGWVTDTLYISNTVPQPGQTVKIVASTPEYGTASAEDKIPSKTEIKGLRIIPRKEATGNGGTLVDGDGNISYIEENDVLIYQITFQDTPGKSNYYSLQIWGDDDHLGVLLDFSVDPVFTQQQGILDEVFGSSMVNWRGRVFSDELFDGKEYTLQVKEQLRSDTKYYTKRHIRLYSLSEPYYQYLLSLQNIKNEGIMGGLTNVGLAEPVRIYSNVEGGTGIAGGCQWFESLVDIKDLIK”, the “soluble on expression in E. coli” value is “not soluble”.

“LPFDGIVTKNIVSELSDILTGARIEKIYQPEPDEIIINLRTKGQNLKLLLSANASYPRIHLTDVTKENPINPPVFCMLLRKHLSGGKITKIDFHDFERVVTIHIETIDELGDLTFKKLVVEIMGKHSNIILVNNENKIIDSIKHVDSDISRVREVMPARPYTLPPGQDKINPLELDIDLLFSKAKEQGDPRISKFFLNNIKGFSPLLCEEICHRADVDPRLPVSSLSEDTIQNLKKVLKEIISKIENSEFTPCIIWNGDDRQKAVDFHSLEIKQYNTVDFYPSISRVLDLFYTIKDTSERLAQKKADLAKILNNCIDRCNKKISIHMDTLREVAEREKFKLYGELITANIYCIPKNASKVSLLNYYSENGEYVEVPLDENLLPQENAQRYFKKYAKAKAAYIHATQQLEEARGELSYLESVLHSLENSNSFEDIDDIRQELAEQGYLPSKKKRPEKKNSKNFTPYTYKSTDGFYIYVGKNNVQNDFLTLKFASSNDIWLHTKNIPGSHVIIRKDRGEIPDSTLFQAAMLAAYHSKAKNSSHVEVDYTKVKNVKKPNGAKPGMVIYDNYKTIIVTPDENVVNNLRMENR”: the “soluble on expression in E. coli” value was “soluble”.

“MVRVVIESELVRTEKELPNSLKLRQFKDRLYHVTGVEPEDMEIVVKRQYDNKEIYSTKKGGAYSNEDEDANFLKGEEELIVVVTDSNAQSISNQLATQAEGIPSMEVISEEDYLRRDQSVLRWKMAHGYGRFNAAQQSQRAALAKQDEAYAREQLTAAIGRHCRVTVDGSAPREAILRYVGPLPLDVMGTWCGVEFPEAAGKNDGRINGVTLFGPVAPGHGSFVRPRAVEILSKDEESAEVEDVHDDVESDDEI”: the “soluble on expression in E. coli” value is “soluble”.

For “MNKGRVTQIMGPVVDVKFDGGKLPEIYNALTVKQSNENGTSINLTFEVALHLGDDTVRTVAMSSTDGLVRGTEVEDTGKAISVPVGDATLGRVFNVLGDAIDLDGEVPADVRRDPIHRQAPAFEELSTKVEILETGIKVVDLLAPYIKGGKIGLFGGAGVGKTVLIQELINNIAQEHGGISVFAGVGERTREGNDLYHEMSDSGVIKKTAMVFGQMNEPPGARQRVALTGLTMAEHFRDEQGQDVLLFIDNIFRFTQAGSEVSALLGRMPSAVGYQPTLATEMGQLQERITSTNKGSITSIQAVYVPADDYTDPAPATTFAHLDATTNLERRLTQMGIYPAVDPLASTSRALSPEIVGEEHYEVARQVQQTLQRYKELQDIIAILGMDELSEEDKLVVHRARRIQFFLSQNFHVAEQFTGQKGSYVPVKETVRGFKEILEGKYDDLPEDAFRLVGGIEEVIENAKKMMA”, the “soluble on expression in E. coli” value was “not soluble”.

For “MEMNRRRSRGFMIAKLMPFCKAVKSPTPSQDLYNNVHYTSSTTTSYARQPDFNNYVTATTPLPPKVSFLLQPSLAPEGKDMEKKLNMMAEKLIGRGINGVDDCVDARAASYISSVRERFKADQYCEKLTTVISLDDEN”, the “soluble on expression in E. coli” value is on record as “soluble”.

Consider “MVDESKLQCYHKGCGLLFDPKENDNEACTYHPGGPYFHDAYKIWTCCDKKSTDFGTWMNYKGCTRGKHSNEKPVDIVKVAAVKEIRPEKEEDVIVWKGLNKSGKLDSKDATKRIEQNLNVEVTPGATAAIEKKLKEISEAAQSADIQIGAPCRNNGCSTEFDGSKNKENCQHHPGAAIFHEGMKYWSCCNKKTSNFGAFLEQVGCTSGEHKFRNNEIVSKFREDWFSSNGFVTINVYCRGALPETANIVSDGHTVRVSMKHGFGNASVDLDYDLWDEVIPEESRVVIGERKVEISLKQKHGTGWPRLKFDPELDAKNDEEA”, for which the “soluble on expression in E. coli” value is recorded as “not soluble”.

On to “MVGPLNGAIGDITGAASELENIPFIGPAIGAKLQRTMRGINVAQAKVGQVVAMYGRATSAVSQVQERIGTLKEQASKASAAINRVAGKISPSLGNIVPTGSFASQATPAPEAVKPFPHLLIIQPLKPEAQPYYFNLDTAAFDELRRQTAFRWAGQERLTRSIAQQAVGLGDDKLSLKGSIFPGFKGGLKQLNTLRSMGRNLQPLSLTTGYGEVLGNWCLLSVDEEQSNLLAGGIPRKQGFSLEFVSYGDDLQNV”, for which the “soluble on expression in E. coli” value is listed as “not soluble”.

Take “MGSDKIHHHHHHMLDENFEALRREATAWIVRITSGTATTEDAEALLRWRSRSDAHEQAFQQSARLWKNLGSALGETRKTSASTVTRRSFIAAGSVAAGAAGVGVVLSELGFLPSVDAMLADYATGVGEQRTVELVDGSTAILDGGTTLSLDYSPSSRHLVLTSGAAVFDVVHDAARPFVVTAANGDTTATGTSFSVKHGEEDVSIECLEGHITVQCLGDSQLNGGEGISYSRAGLGKKVAADIETAAAWRRGLLIFEDRPLADVVSDLNRHRRGRVVIASSDLRSRRMSGVFHLNRPDEILAHLEETLQVRPVSLVGGIVLLR”: the “soluble on expression in E. coli” value is “not soluble”.

The record behind these values is the DeepSol protein solubility set.
